# Paper PMC6488228 (Nature microbiology, 2018)
# B1: EagT6 (from pRSFDuet-1::vgrG1::eagT6) (natural protein)
# chain: MTLYRLHEADLEIPDAWQDQSINIFKLPASGPAREASFVISRDASQGDAPFADYVARQLENAEKQLPGFKLHKRWDINIHGHAAVLLDYQWQREGRDLMLRQVFIERRPAVLITTLTTTPADLPHHEPAWKQAMQTLVPRPTPS
# Key:
# [1] = molecular target: VgrG1 (from pRSFDuet-1::vgrG1::eagT6) (Pseudomonas aeruginosa); assay: cryo-EM structure
# [2] = molecular target: Tse6 (full-length, C-terminal His8 tag) (Pseudomonas aeruginosa, UniProt Q9I739 1-430); assay: cryo-EM structure
# Tse6 (full-length, C-terminal His8 tag), sequence (Q9I739 whole entry): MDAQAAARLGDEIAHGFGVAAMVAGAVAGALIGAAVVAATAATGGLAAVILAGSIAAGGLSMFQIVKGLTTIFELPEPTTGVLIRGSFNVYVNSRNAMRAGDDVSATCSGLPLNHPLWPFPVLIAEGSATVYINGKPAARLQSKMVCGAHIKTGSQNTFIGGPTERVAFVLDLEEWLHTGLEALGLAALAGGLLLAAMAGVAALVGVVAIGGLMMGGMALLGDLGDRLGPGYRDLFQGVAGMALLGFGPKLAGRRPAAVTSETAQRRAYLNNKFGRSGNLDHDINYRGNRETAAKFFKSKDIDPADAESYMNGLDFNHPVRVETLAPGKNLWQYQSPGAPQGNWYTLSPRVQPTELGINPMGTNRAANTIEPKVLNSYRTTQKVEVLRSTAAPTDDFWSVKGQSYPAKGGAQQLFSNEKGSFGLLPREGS
Molecule,stoichiometry N [1],binding result [2]
VgrG1 (from pRSFDuet-1::vgrG1::eagT6) (natural protein),3,–
B1,–,binds
